From the supplement of paper PMC11780869

Test system: Bacillus subtilis
Test: cleaved RNA product abundance (RNA/gDNA barcode ratio) relative to median wild-type variant (ratio to wild type); higher = more accumulation of the downstream cleavage product
Procedure, shortened: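 Reporter mRNAs based on truncated aprE or tetM carried barcoded, mutagenized RNase Y cleavage-site windows built from oligos with a 9% error rate and were integrated into the B. subtilis chromosome. Cultures grew in LB at 37°C from OD600 0.0003 to 0.3. Cleaved RNA was gel-selected, reverse transcribed and barcode-sequenced together with genomic DNA barcodes, and UMIs were collapsed. Cleaved product abundance is the per-construct ratio of RNA to gDNA barcodes, scaled to the median of constructs carrying the unmutated site.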

[1] = experiment (reporter, strain, medium): exp 4a: truncated aprE reporter, strain BJT201 with 2% xylose (RNase J1 expressed), cleavage site: cggR-gapA (positions -7 to +36 mutated)
[2] = experiment (reporter, strain, medium): exp 8a: truncated aprE reporter, strain BJT201 with 2% xylose (RNase J1 expressed), cleavage site: glnRA (positions -5 to +31 mutated)
[3] = experiment (reporter, strain, medium): exp 2b: truncated aprE reporter, strain BJT200, cleavage site: cggR-gapA (positions -7 to +36 mutated)
[4] = experiment (reporter, strain, medium): exp 6: tetM reporter, strain 168, cleavage site: cggR-gapA (positions -7 to +36 mutated)

ACAGACGAAGGAGCCGCAAAGAATTTATTAAGGGATTAATAATCACTCAATATAAATATCTCTCACTTATTTAAA
cleaved RNA product abundance [1]: 0.153

ACAGACGAAGGAGCCGCAAAGAAGTTATTAATGGATGGATAATCCCTCAATATAAATATCTCTCACTTATTTAAA
cleaved RNA product abundance [1]: 0.143

CGACATGTCCCGCTTCTTTCATTAATCCGTTAGCAACTGTTTTGATATATACATCTACCTTTTAAGAGGAGGAAT
cleaved RNA product abundance [2]: 0.44

CGACATGTCCCGCTTCTTTCATTAATCCGTTAGCTACTGTTTTGCTATATACATTTAACTTTTAAGAGGAGGAAT
cleaved RNA product abundance [2]: 0.621

ACAGACGAAGGAGCCGCAAAGTAGTTATTAAGGGATGAATAATCCCTCAATATAAATATCTCTCACTTATTTAAA
cleaved RNA product abundance [3]: 0.953
cleaved RNA product abundance [1]: 0.98
cleaved RNA product abundance [4]: 1.09

ACAGACGAAGGAGCCGCAAAGAAGTTATTAAAGGATGAATAATCCCTCAATACAAATATCTCTCACTTATTTAAA
cleaved RNA product abundance [3]: 0.126
cleaved RNA product abundance [1]: 0.0875

ACAGACGAAGGAGCCGCAAAGAAGTTATTAAGGGATGAATAAACCCTCAATGTAAATATCTCTCACTTATTTAAA
cleaved RNA product abundance [1]: 0.19

ACAGACGAAGGAGCCGCAAAGAAGTTATTAAGGGATAAATAATCGCTCAATATAAATATCTCTCACTTATTTAAA
cleaved RNA product abundance [1]: 0.0974

CGACATGTCCCGCTTCTTTCATTAATCCGTTAGCAACTGTTTTGCTGTATACATTTACCTTTTAAGAGGAGGAAT
cleaved RNA product abundance [2]: 0.219

CGACATGTCCCGCTTCTTTCATTATTCCGTTAGCAACTGTTTTGCTATAAACAGTTACCTTTTAAGAGGAGGAAT
cleaved RNA product abundance [2]: 0.0919

ACAGACGAAGGAGCCGCAAAGAAGTTATTAAAGGATGAATAATCCCTCAATATAAATATATCTCACTTATTTAAA
cleaved RNA product abundance [1]: 0.259

ACAGACGAAGGAGCCGCAAAGAAGTTATTAAGGGATGAATAATCCCACAATATGAATATCTCTCACTTATTTAAA
cleaved RNA product abundance [3]: 0.107
cleaved RNA product abundance [1]: 0.0667

CGACATGTCCCGCTTCTTTCATTAATCCATTAGCAACTGTTTTGCTATATACATTTACTTTTTAAGAGGAGGAAT
cleaved RNA product abundance [2]: 0.808

CGACATGTCCCGCTTCTTTCATTATTTCGTTAGCAACTGTTTTGCTATATACATTTACCTTTTAAGAGGAGGAAT
cleaved RNA product abundance [2]: 1.59

ACAGACGAAGGAGCCGCACAGAAGTTATTAAGGGATGAATAATCCCTAAATATAAATATCTCTCACTTATTTAAA
cleaved RNA product abundance [1]: 0.586

ACAGACGAAGGAGCCGCAAAGAAGTTATTAAGGGATCATTAATCCCTCAATATAAATATCTCTCACTTATTTAAA
cleaved RNA product abundance [1]: 1.08

ACAGACGAAGGAGCCGCAAATTAGTTATTAATGGATGAATAATCCCTCAATATAAATATCTCTCACTTATTTAAA
cleaved RNA product abundance [1]: 0.153

CGACATGTCCCGCTTCTTTCATTAATCCTTTAAAAAGTGTTTTGCTATATACATTTACCTTTTAAGAGGAGGAAT
cleaved RNA product abundance [2]: 0.182

ACAGACGAAGGAGCCGCAAAGAAGTAATTAAGGGATGAATACTCCCTCAATATAAATATCTCTCACTTATTTAAA
cleaved RNA product abundance [1]: 0.324

CGACATGTCCCGCTTCTTTCATTAATCCGTTAGCAAGTGTTTTGCTATATACATTTACTTTTTAAGAGGAGGAAT
cleaved RNA product abundance [2]: 1.39

ACAGACGAAGGAGCCGCAAAGAAGTTATTAAGGGATGAATAATCCCTCGATATAAATATCTCTCACTTATTTAAA
cleaved RNA product abundance [3]: 0.348
cleaved RNA product abundance [1]: 0.419
cleaved RNA product abundance [4]: 0.589

CGACATGTCCCGCTTCTTTCATTATTCAGTTAGCAACTGTTTTGCTATATACATTTACCTTTTAAGAGGAGGAAT
cleaved RNA product abundance [2]: 1.38

ACAGACGAAGGAGCCGCAAAGAAGTTATTCAAGGATGAATAATCCCTCAATATAAATATCTCTCACTTATTTAAA
cleaved RNA product abundance [3]: 0.134
cleaved RNA product abundance [1]: 0.242

ACAGACGAAGGAGCCGCAAAGGAGTTATTAAGGGATGAATAATACCTCAATATAAATATCTCTCACTTATTTAAA
cleaved RNA product abundance [3]: 0.131
cleaved RNA product abundance [1]: 0.192

ACAGACGAAGGAGCCGCAAAAAAGTTATTAAGGGATGAATAAACCCTCAATATAAATATCTCTCACTTATTTAAA
cleaved RNA product abundance [3]: 0.468
cleaved RNA product abundance [1]: 0.631

ACAGACGAAGGAGCCGCAAAGAAGTTATTAAGGGAAGAATAATCCATCAATATAAATATCTCTCACTTATTTAAA
cleaved RNA product abundance [3]: 0.114
cleaved RNA product abundance [1]: 0.105

CGACATGTCCCGCTTCTTTCATTAATCCGTTAGCAACTATTTTGCTATAAACATTTACCTTTTAAGAGGAGGAAT
cleaved RNA product abundance [2]: 1

ACAGACGAAGGAGCCGCAAAGTAGTTATTAAGGGATGAATAATCCCTCAATATAATTATCTCTCACTTATTTAAA
cleaved RNA product abundance [1]: 0.437

ACAGACGAAGGAGCCGCAAAGAAGTTATTAAGTGATGAATAATCCATCAATATAAATATCTCTCACTTATTTAAA
cleaved RNA product abundance [3]: 0.153
cleaved RNA product abundance [1]: 0.165

ACAGACGAAGGAGCCGCAGAGAAGTTATTAAGCGATGAATAATCCCTCAATATAAATATCTCTCACTTATTTAAA
cleaved RNA product abundance [1]: 0.171

ACAGACGAAGGAGCCGCAAAAAAGTTATTAAGGGATGAATAATCCCTCAATATAAAGATCTCTCACTTATTTAAA
cleaved RNA product abundance [1]: 0.56

ACAGACGAAGGAGCCGCAAAGAAGTTATTAAGGGATGAGTAATCCCTCAATATAAATATCTCTCACTTATTTAAA
cleaved RNA product abundance [3]: 0.484
cleaved RNA product abundance [1]: 0.596
cleaved RNA product abundance [4]: 0.74

ACAGACGAAGGAGCCGCAAAAAAGTTGTTAAGGGATGAATAATCCCTCAATATAAATATCTCTCACTTATTTAAA
cleaved RNA product abundance [3]: 0.388
cleaved RNA product abundance [1]: 0.355

CGACATGTCCCGCTTCTTTCATTAATCCGTTAGCAACTGTTTTACTATATACGTTTACCTTTTAAGAGGAGGAAT
cleaved RNA product abundance [2]: 0.455

CGACATGTCCCGCTTCTTTCATTAATCCGTTAGCAACTTTTTAGCTATATACATTTACCTTTTAAGAGGAGGAAT
cleaved RNA product abundance [2]: 0.565

CGACATGTCCCGCTTCTTTCATTAATCCGTTATCAACTGTTTTGCTATATACATTTACGTTTTAAGAGGAGGAAT
cleaved RNA product abundance [2]: 0.376

ACAGACGAAGGAGCCGCAAAGAAGTTATTAAGGGATGAATCAGCCCTCAATATAAATATCTCTCACTTATTTAAA
cleaved RNA product abundance [1]: 0.813

ACAGACGAAGGAGCCGCAAAGAAGTTATCAAGCGATGAATAATCCCTCAATATAAATATCTCTCACTTATTTAAA
cleaved RNA product abundance [1]: 0.0711

ACAGACGAAGGAGCCGCAAAAAAGTTATTAAGGGATGAATAATCCCTGAATATAAAGATCTCTCACTTATTTAAA
cleaved RNA product abundance [3]: 0.364

CGACATGTCCCGCTTCTTTCATTAATCCGTTAGCAACTGTTTTGCTTTATAAATTTACCTTTTAAGAGGAGGAAT
cleaved RNA product abundance [2]: 0.385

ACAGACGAAGGAGCCGCAAAGAAGTTCTTAAGAGATGAATAATCCCTCAATATAAATATCTCTCACTTATTTAAA
cleaved RNA product abundance [1]: 0.117

ACAGACGAAGGAGCCGCAAAGAAGTTATTAAGGGATGAATCATCCCCCAATATAAATATCTCTCACTTATTTAAA
cleaved RNA product abundance [1]: 0.296

CGACATGTCCCGCTTCTTTCATTAATCCGTTAACAACTGTTTTGCTATATACATTTACCTTTTAAGAGGAGGAAT
cleaved RNA product abundance [2]: 0.217

ACAGACGAAGGAGCCGCAAAGAAGTTATTAAGGGATGAATAATCCCTCAATATAAATATCTCTCATTATTTAAAG
cleaved RNA product abundance [3]: 1.06
cleaved RNA product abundance [1]: 1.05

ACAGACGAAGGAGCCGCTAAGAAGTTACTAAGGGATGAATAATCCCTCAATATAAATATCTCTCACTTATTTAAA
cleaved RNA product abundance [3]: 0.186

ACAGACGAAGGAGCCGCAAAGAAGTTATTAAGGGATGAATAATCCCTTAATATAAATATTTCTCACTTATTTAAA
cleaved RNA product abundance [1]: 0.494
